The numbers were not newly measured in publication PMC5627252, which cites them from elsewhere.

What is called Kd is the constant that tells how readily two partners part at equilibrium.

In data set [1] the target is FcγRIIIa (Homo sapiens) (UniProt P08637).
For data set [2] the target is unchanged. This is another data set of the same source.
Data set [3] has the same target. This is another data set of the same source.

Where two headings read alike, the source gives them in different places.

Chain of FcγRIIIa (Homo sapiens) (P08637 17-254): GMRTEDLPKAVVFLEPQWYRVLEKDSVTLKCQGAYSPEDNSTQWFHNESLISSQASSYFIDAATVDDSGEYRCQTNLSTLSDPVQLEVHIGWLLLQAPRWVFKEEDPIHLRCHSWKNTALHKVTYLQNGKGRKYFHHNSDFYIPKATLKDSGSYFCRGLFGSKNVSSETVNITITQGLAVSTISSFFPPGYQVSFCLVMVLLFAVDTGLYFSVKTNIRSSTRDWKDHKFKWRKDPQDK

With IgG1 Fc-Man5 Fc (from UniProt P01857), the Kd with FcγRIIIa (Homo sapiens) [1] was 32 nM.
In the case of IgG1 Fc-GlcNAc Fc (from UniProt P01857), in the data set with FcγRIIIa (Homo sapiens) [2], the equilibrium dissociation constant (Kd) is 995 nM.
Consider IgG1 Fc-Man8 Fc (from UniProt P01857), for which the Kd with FcγRIIIa (Homo sapiens) [3] was 26 nM.
